# Experimental data published in PMC9521185, “Self-assembly and label-free fluorescent aptasensor based on deoxyribonucleic acid intercalated dyes for detecting lactoferrin in milk powder”.
# B1: LF aptamer (ssDNA)
# DNA: TGGTGCTGCCCCTAGTCTCCGGCTGATAGCTGCTTCTTGG
# Target: lactoferrin (LF) (bovine (milk), UniProt P24627 20-708)
# Assay: PicoGreen dye-displacement fluorescence; PicoGreen; LF 100 nM and 1 uM; linear 20-500 nM, LOD 3 nM; Buffer, salt, pH and temperature not in the material; fluorescence ex 485 nm / em 528 nm, microplate reader
# Details: protein: commercial; label: none (label-free; PicoGreen intercalated)
# Chain of lactoferrin (LF) (P24627 20-708): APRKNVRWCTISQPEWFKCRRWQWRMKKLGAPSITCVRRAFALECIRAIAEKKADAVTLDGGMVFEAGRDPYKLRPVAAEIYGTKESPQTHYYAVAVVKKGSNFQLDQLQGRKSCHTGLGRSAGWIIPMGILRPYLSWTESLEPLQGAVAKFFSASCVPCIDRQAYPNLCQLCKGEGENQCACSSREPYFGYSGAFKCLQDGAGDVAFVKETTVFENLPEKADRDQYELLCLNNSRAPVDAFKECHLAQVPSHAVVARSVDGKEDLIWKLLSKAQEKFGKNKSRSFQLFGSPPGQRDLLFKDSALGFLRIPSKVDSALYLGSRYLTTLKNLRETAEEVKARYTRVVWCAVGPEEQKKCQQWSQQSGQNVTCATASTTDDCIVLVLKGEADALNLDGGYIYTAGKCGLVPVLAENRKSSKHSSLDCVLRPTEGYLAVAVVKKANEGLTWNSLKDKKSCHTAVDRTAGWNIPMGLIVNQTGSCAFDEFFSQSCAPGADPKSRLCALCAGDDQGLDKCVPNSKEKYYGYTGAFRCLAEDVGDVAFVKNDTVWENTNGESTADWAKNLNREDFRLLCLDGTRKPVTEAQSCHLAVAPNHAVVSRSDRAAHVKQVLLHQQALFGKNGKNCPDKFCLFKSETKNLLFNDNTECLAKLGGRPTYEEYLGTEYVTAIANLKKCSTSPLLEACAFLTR
binder,measurement,value
B1,binding result,binds
